Assay: yeast display, Sf9 membrane polyspecificity reagent, FACS + sequencing; frameworks hold sequencing errors
Summary of the method: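 Galactose-induced (36–48 hours) yeast carrying a synthetic nanobody display library were exposed to 10% biotinylated, detergent-solubilized Sf9 membrane reagent at 4 °C for 1 hour. FACS followed streptavidin microbead enrichment, using low and high (top ~1%) gates for expression (anti-HA) and reagent binding (streptavidin). Colony PCR, MiSeq 2 × 250 sequencing and CDR-length filtering followed. Labels for polyreactivity reflect the gate of origin.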

Sequence	polyreactivity (PSR sort gate)
QVQLVETGGGLVRAGGSLRLSCAASGRPFGRYAMGWYRQGPGKETELVAAITRTGITNYEVSVKGRFTISRDNAKNTVYLHMNSLNPEDTAVYYGAARRWLNCYGTGYGYWGQGTLVTVSS	high polyreactivity
QVQLVESGGGLVQAGGSLRLSCAASGSIFGANAMGWYRQAPGKERELVAAISTRGGRTYYADSVKGRFTISRDNAKNTVYLQMNSLKPEDTAVYYCATSGGRPYKYEYWGQGTQVTVSS	high polyreactivity
QVQLVESGGGLVQAGGSHRLSSAASGNTFGINAMGWYRQAPGKERELVASISFTGSSTYYADSVKGRFTISRDNAKNTVYLQMNSLKPEDTAVYYCNRDRITLYEYDYWGQGTQVTVSS	low polyreactivity
QVQLVESGGGIVQAGGSLRLSCAASGSTLYLYVMGWYRQAPGKERELVAVISSSSGRTYYADSVKGRFTISRDNAKNTVYLQMNSLKPEDTAVYYCAADNYVGYHWYNYWGQGTQVTVSS	high polyreactivity
QVQLVESGGGLFQAGGSLRLSCAASGRTFYNNAMGWYRQAPGKERELVATINNRGGTTYYADSVKGRFTISRDNAKNTVYLQMNSLKPEDTAVYYCAKSAQRYSYRYYYWGQGTQVTVSS	high polyreactivity
QLQLVESGGGLVQAGGSLRLSCSASGGTFYRNAMGWSRQAPGKESELVPSISRTGGSTYYADSVKGRFTISRDNAKNTVYLQMNILKPEDTAVYYCANKQPRYSYFDNDYWGQGTQVTVSS	high polyreactivity
QVQLVESGGGLVQAGGSLRLSCAASAFTLARYAMGWYRQAPGKERELVAAITKRGGSTYYADSVKGRFTISRDNAKKTVYLQMNSLKPEDTAVYYCNGASRYSQTFEFDYWGQGTQVTVSS	high polyreactivity
QVQLVESGGGLVQAGGSLRLSCAASGSIFYPNVMGWYRQAPGKERELVAAIRTSGGSTYYADSVKGRFTISRDNAKNTVYLQMNSLKPEDTAVYYCAADYIYVKYEYWGQGTQVTVSS	high polyreactivity
QVKLVESGGGLVQAGGSLRLSCAASGRTFGVYAMGWYRQAPGKEREFVATITSRGGRTYYADSVKGRFTISRDNAKNTVYLQMNSLKPEDTAVYYCAVGRGSLRGRTDGGYWGQGTQVTVSS	high polyreactivity
QVQLVESGGGLVQAGGSLRLSCAASGSTFGYYAMGWYRQAPGKERELVATITIGGSTHYADSVKGRFTISRDNAKNTVYLQMNSLKPEDTAVYYCAARYAYYTARYTQVKGLDYWGQGTQVTVSS	high polyreactivity
QVQLVESGGGLVQAGGSLRLSCAASGSTFSYNAMGWYRQAPGKVRELVASINSRGGTTYYADSVKGRFTISRDNAKNTVYLQMNSRKPEDTAVYYCATDVYRLGEYDYWGQGTQVTVSS	low polyreactivity
QVQLVESGAGLVQARGSLRLTCAASGGTFLSYAKGWYRQAPGKERELVAGISSGGSTNYADSVKGRFTISRDNAKNTVYLQMNSLKPEDTAVYYCAADSFPSEFDYWGQGTQVTVSS	low polyreactivity
QVQLVESGGGLVQAGVSLRLSCAASGLTFGNYAMGWYRQAPGKERELVAAISKRGGTTYYADSVKARFTISRDNAKNTVYLQMNSLKPEDTAVYYCSARDYSHPTDDNYWGQGTQVTVSS	high polyreactivity
QVQLVESGGGLVQAGGSLRLSCAASGFIFGHNDMGWYRQAPGKERELVASISKSGGDTYYADSVKGRFTISRDNAKNTVYLQMNSLKPEDTAVYYCAADGPDAYYYHRYIYFRRSYYWGHGTQVTVSS	low polyreactivity
QVQLVESGGGLVQAGGSLRLSCAASGRTFCRYAMGWYRQAPGKERELVAAIRSGASTYYADSVKGRFTISPDNGKNTVYLQMKSLIPEDTAVYYCAADIARHLTGFAYYRLDYWGQGTQVTVSS	low polyreactivity
QVQLVESGGGLLQAGGSLRLSCAASGFIFVDNAMGWYRQAPGKERELVAAITSGASTYYADSVKGRFTISRDNAKNTVYLQMNSLKPEDTAVYYCAADYLYYYTWYNYWGQGTQVTVSS	low polyreactivity
QVQLVESGGGLVQAGGSLRLSCAASGITFQWYTMGWYRQAPGKERELVATISSGGSTNYADSVKGRFTISRDNAKNTVYLQMNSLKPEDTAVYYCAKQPTVYHHYGLGYWGQGTQVTVSS	low polyreactivity
QVQLVESGGGLVQAGGSLRLSCAASGLTFRRYAMGWYRQAPGKVRELVAGISRGGSTYYADSVKGRFTISRDNAKNTVYLQMNSLKPEDTAVYYCAAYNRGTYPVQPVPYDMDYWGQGTQVTVSS	low polyreactivity
QVQLVESGGGLLQAGGSLRLRSPASGSIFEEYAMGWYRQAPGKERELVAAITRRGGNTYYADSVKGRFTISRDNAKNTVYLQMTSLKPEDTAVYYCAAPLGNYSWQYEYWGPGTQVTVSS	low polyreactivity
QVQLVESRGGLVQAGGSLRLSCACSGGIFVKSAMGCYRKAPCKERELVAAISKRGGRTYYADSVKGRFTISRDNAKNTVYLQMNSLKPEDTAVYYCYADVGVEYDYWGQGTQVTVSS	high polyreactivity
QVQLVESGGGLVQAGGSLLLSCAASGFTFKYYAMGWYRQEPGKERELVAAINRSVGSTYYADSVKGRFTISRDNAKNTVYLQMNSLKPEDTAVYYCNARVRVPVTLHDYWGQGTQVTVSS	high polyreactivity
QVQLVESGGGLVQAGGSLRLSCAASGSTFHFYAMGWYRQAPGKERELVASITSRGGNTHYADSVKGRFTISRDNAKNTVYLQMNSLKPEDTAVYYCAARGGWYGTYDYWGQGTQVTVSS	low polyreactivity

Sequence	polyreactivity (PSR sort gate)
QVQLVESGGGLVQAGGSLRLSCAASGATLVWNTMGWCRQAPGTERELVAGITSGGSTKYADSVKGRFTISRDNAKNTVYLQMKRLKPEDTAVYYCAADCYGQAIFIYDYWGQGTQVTVSS	low polyreactivity
QVQLVESLVGLDQAGGSLRLSCSASGFTIPRYAMGWSRQAHGKESELVAAITSGGSTYYADSVKGRFTISRDNAKNNVYLQMNSLKTEVTAVYFCAADGLCGSRFYSWGLGTQVTVSS	high polyreactivity
QVQLVESGGGLVQAGGSLRLSCAASGFIFTVNAMGWYRQAPGKERELVAAITQSCGNTSYADSVKGRFTISRDNAKNTVYLQMNSLKPEDTAVYYCNASSDTSRYGVSTYYYWGQGTQVTVSS	low polyreactivity
QVQLVESGGGLVQAGGSLRLSCAASGIIFRNYAMGWYRQAPGKERELVATIRYRGGRTYADSVKGRFTISRDNAKNTVYLQMNSLKPEDTAVYYCNARRLSVYGDYDYWGQGTQVTVSS	high polyreactivity
QVQLVESGGGLVQAGGSLRLSCAASGSIFYANAMGWYRQAPRKERELVAAISWSGGRTYYADSVKGRFTISRDNAKNTVYLQMISLKPEDTAVYFCAAVTRGLRFVYWGQGTQVTVSS	high polyreactivity
QVQLVESGGGLVQAGGSLRLSCAASGVNAMGWYRQAPGKEREFVAAITSIGGSTYYADSVKGRFTISRDNAKNTVYLQLNSLKPEDTAVYDCNTDRGPVKVSPLYESWGQGTQVTVSS	low polyreactivity
QDQLVESGGGLVQAGGSLRLICAASGRTFYQYVMGWYRQAPGKERELVAAIRSGGNTYYADSVKGRFTISRDNAKNTVYLQMNSLKPEDTAVYYCAVQRGYYRYRLGRYGYDYWGQGTQVTVSS	high polyreactivity
QVQLVESGGGLVQAGGRLRLTCAASGSTFGDYAMGWYRQAPGKERELVAAITYSGGRTYYADSVKGRFTISRDNAKNTGDLQMNRLKPEDTAVYYCAARVRYPSRRGNYDYWGEGTQVTVSS	high polyreactivity
QVQLVESGGGLVQAGGSLRLSCAASGRIFSYYAMGWYRQAPGKERELVAAISWNGGSTYYADSVKGRFTISRDNAKNTVYLQMNSLKPEDTAVYYCNRLGYRTGYERDYWGQGTQVTVSS	high polyreactivity
QVQLQESGGGLVQAGGSLRLSCAASGDNLEADDMGWYRQAPGKERELVASITDGGSTNCADSMKGRSTICRDNAKITVYLQMNSLKLEDTAVYYCAAIAYPDVPTYFDYDSDYFYWGQGTLVTVSS	high polyreactivity
QVQLVESGGGLVQAGGSLRLSCAASGFTFRFYAMGWYRQAPGKETELVAAISSSGSRTYYADSVKGRFTISRDTAKNTVYFQMHSLKPEDTAVYYCNTVTSQDRYDYWGQGTHVTVSS	high polyreactivity
QVQLVETGGGLVQAGGSLRLSCAASGSIFVPYGMGWYRQAPGKERELVAAIRKRGSSTYYADSVKWRFTNSRDNAKNTVYLQMNSLKPEDTAVYYCASTWVSVWYRYDYWGQGTQVTVSS	high polyreactivity
QVQLVESGGGLVQAGGSLRLSCAASGSTFYSNTMGWYRQAPGKERELVAAITRSGGSTYYADSVKGRFTISRDNAKNTVYLQMNSLKPEETAVYYCNTGYKTRALYWPYDYWGQGTLVTVSS	high polyreactivity
QVQLVESGGGLVQAGGSLRLSCAASGSILGHYAMGWYRQAPGTERELVAAISWSGGSTYYADSVKGRFTISRDNAKNTVYLQMNSLKPEDTAVYYCNAAAILYTSDGSLYWYDYWGQGTQVTVSS	low polyreactivity
QGQLVDSGGGVVQAGGSLRLSSAASGRSFGRNVMGWYRPAPGKERELVAAIRYSSGGTYYADSVKGRFTISRDYAKNTVDLQMNSLKPEDTAVYYCAARFFRGYRGGDWGQGTQVTVSS	high polyreactivity
QVQLVESGGGLVQAGGSLRLSCAASGSTFGRYAMGWYRQARGKERELVAAISYGDGSTYYADSVKGRFTISRDYAKNTVYLQINSLIPEDTAVYYCATETETYSCWDPVWADDYDYWGQGTQVTVSS	low polyreactivity
QVQLVESGGGLVQAGGSLRLSCAASGFTFPYYAMGWYRQALGKERELVAGISRGGSTYYADSVKGRFTISRDNAKNTVYLQMNSLKPEDTAVYYCAADRYIGQYTYYYWGQGTQVTVSS	high polyreactivity
QVQLVESGGGLVQAGGSLRLSCAASGRIFWAYAMGWYRQAPGKERELVADITSGGSTYYADSVKGRFTISRDNAKNNVYLQMNSLKPEDTAVYYCAVGSKWVDDSPEDEYWGQGTQVTVSS	low polyreactivity
QVQLVESGGGLVQAGGSLSLRCASSGSTFAYYAMGWYRQAPGKERELVAGNNWTGGSTYYADSVKGRFTISRDNAKNTVYLQMNSLKPEDTAVYYCAVTYPYGYEYDHWGQGTQVTVSS	low polyreactivity
QVQLVESGGGLVQAGGSLRLSCAASGFTFAGNAMGWYRKAPGKERELVAGISRRGGNTYYADSVKGRFTISRDIAKNTVYLQMNSLKPEDTAVYYCARYSSSYWGQGTQVTVSS	high polyreactivity
QVQLVESGGGLVQAGGSLRLSCAASGSIFATYAMGWYRQAPGKEMELVAVISCGGGRTNYADSVKGRFTISRDNAKNTVYLQLNSLKPEDTAVYYCAAGGYWRIATDGPRGGDYWGQGTQVTVSS	high polyreactivity
